The series deals with the molecule itself. The series can be described thus: Western blot, homodimer formation.

B1: K3 NGAL mutant protein (ligand)
chain: QDSTSDLIPAPPLSSVPLQQNFQDNQFQGKWYVVGLAGNAILREDEDPQKMYATIYELKEDKSYNVTSVLFRDDGCDYWIRTFVPGCQPGEFTLGNIQSYPGLTSYLVRVVSTNYNQFAMVFFKKVSQNQEYFKITLYGRTKELTSELQENFIRFSKSLGLPENNIVFPVPIDQCIDG
notes: Mutant of human NGAL; Expressed in bacteria like the wild type and labelled with Alexa 568 in the uptake assays; also called K3 Scn-Ngal; Mut1
Turning to B1, the binding result was “binds”.

For the origin of these results see patent US12173037 (TRUSTEES OF COLUMBIA UNIVERSITY IN THE CITY OF NEW YORK, dated 2024).
